Consider 2 molecules from patent US20040254139, “Oligonucleotides antagonist for human tumor necrosis factor alpha (TNF-alpha)” (published 2004).

Series [1] has as its target T1, TNF-alpha (tumor necrosis factor alpha) (Homo sapiens, UniProt P01375 P01375:77-233). The experiment in a line: ELONA; affinity and inhibition activity stated unchanged. The note with it: chain copies: 3.
The target of series [2] is T1, TNF-alpha (tumor necrosis factor alpha). The experiment in a line: ELONA; affinity unchanged; still positive at 3 ng/ml. The note with it: chain copies: 3.

T1 sequence (P01375 77-233, one chain of several): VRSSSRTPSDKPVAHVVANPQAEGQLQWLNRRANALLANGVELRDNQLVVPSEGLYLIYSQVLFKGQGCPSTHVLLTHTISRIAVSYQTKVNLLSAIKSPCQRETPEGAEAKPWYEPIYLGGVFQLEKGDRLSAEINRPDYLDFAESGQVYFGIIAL

B1: truncated modified SEQ 20 (ssRNA)
RNA: GCUUAGCAAACGCACCGCACAGGCCCGCGG
modifications: 2'-F and 2'-NH2 pyrimidines (printed 2-fluorin and 2-amido)
Take B1: the binding result in series [1] is recorded as “binds”.

B2: truncated amino-modified SEQ 25 (ssRNA)
RNA: CCUCAUAGACUACUGUUAAGCCUCGAGG
modifications: 2'-NH2 pyrimidines (printed 2-amido)
Turning to B2, the binding result in series [2] is “binds”.
